Results reported in patent US20250042943A1, “FAP DETECTION” (THE UNIVERSITY COURT OF THE UNIVERSITY OF EDINBURGH, priority 2021, published 2025).

What was measured:
[1] = biological target: T1, rhFAP (Homo sapiens, UniProt Q12884); experiment: Probe cleavage by recombinant human FAP (fluorescence read); format: biochemical
T1 sequence (Q12884 1-760): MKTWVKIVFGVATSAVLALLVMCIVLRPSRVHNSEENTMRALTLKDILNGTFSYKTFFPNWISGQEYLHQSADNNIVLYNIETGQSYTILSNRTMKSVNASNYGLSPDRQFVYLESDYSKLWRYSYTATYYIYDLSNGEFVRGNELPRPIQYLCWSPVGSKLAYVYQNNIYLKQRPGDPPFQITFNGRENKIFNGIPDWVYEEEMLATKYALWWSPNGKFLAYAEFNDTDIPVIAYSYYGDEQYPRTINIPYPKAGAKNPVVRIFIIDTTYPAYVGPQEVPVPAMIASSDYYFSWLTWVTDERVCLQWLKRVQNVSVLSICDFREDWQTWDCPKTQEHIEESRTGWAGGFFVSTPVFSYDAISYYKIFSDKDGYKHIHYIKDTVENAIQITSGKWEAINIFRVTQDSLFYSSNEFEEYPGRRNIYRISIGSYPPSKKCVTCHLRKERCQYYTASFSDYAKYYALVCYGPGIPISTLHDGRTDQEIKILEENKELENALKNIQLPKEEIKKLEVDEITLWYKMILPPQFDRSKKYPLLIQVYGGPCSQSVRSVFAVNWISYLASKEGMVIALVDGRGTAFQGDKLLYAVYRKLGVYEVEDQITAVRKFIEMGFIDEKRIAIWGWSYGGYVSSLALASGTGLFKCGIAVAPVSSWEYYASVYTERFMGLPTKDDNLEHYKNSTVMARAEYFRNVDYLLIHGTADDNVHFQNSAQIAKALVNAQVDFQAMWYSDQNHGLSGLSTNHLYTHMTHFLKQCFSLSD

[2] = biological target: T2, rhPREP (Homo sapiens, UniProt P48147); experiment: Probe cleavage by recombinant human PREP; format: biochemical; conditions: probe 5 μM, enzyme 0.1 μg/ml, read 480/530 nm
T2 sequence (P48147 1-710): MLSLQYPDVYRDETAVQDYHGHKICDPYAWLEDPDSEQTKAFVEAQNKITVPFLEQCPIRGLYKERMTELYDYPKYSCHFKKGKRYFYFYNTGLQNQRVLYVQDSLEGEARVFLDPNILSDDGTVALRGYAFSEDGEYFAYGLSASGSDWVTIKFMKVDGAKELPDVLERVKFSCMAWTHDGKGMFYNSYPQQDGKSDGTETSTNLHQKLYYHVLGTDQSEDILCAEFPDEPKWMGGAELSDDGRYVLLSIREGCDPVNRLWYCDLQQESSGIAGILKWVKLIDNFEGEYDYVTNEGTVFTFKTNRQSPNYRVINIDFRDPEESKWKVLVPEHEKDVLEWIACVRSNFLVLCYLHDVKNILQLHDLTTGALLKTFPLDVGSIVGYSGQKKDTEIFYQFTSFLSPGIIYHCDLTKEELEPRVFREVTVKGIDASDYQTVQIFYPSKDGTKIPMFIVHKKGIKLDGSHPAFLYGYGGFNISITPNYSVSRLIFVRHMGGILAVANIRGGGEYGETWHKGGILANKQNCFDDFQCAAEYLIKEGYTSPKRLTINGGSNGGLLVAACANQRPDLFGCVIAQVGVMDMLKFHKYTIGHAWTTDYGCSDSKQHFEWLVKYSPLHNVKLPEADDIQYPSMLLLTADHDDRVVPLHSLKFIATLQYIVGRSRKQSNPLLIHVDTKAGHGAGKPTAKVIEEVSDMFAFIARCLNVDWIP

[3] = system: activated neutrophil lysate; experiment: Assessment on activated neutrophil lysate; conditions: data not shown
[4] = biological target: rhDPPIV (Homo sapiens, UniProt P27487); experiment: Probe cleavage by recombinant human DPPIV (exopeptidase activity); format: biochemical; conditions: probe 5 μM, enzyme 0.1 μg/ml, read 480/530 nm
rhDPPIV, sequence (P27487 whole entry): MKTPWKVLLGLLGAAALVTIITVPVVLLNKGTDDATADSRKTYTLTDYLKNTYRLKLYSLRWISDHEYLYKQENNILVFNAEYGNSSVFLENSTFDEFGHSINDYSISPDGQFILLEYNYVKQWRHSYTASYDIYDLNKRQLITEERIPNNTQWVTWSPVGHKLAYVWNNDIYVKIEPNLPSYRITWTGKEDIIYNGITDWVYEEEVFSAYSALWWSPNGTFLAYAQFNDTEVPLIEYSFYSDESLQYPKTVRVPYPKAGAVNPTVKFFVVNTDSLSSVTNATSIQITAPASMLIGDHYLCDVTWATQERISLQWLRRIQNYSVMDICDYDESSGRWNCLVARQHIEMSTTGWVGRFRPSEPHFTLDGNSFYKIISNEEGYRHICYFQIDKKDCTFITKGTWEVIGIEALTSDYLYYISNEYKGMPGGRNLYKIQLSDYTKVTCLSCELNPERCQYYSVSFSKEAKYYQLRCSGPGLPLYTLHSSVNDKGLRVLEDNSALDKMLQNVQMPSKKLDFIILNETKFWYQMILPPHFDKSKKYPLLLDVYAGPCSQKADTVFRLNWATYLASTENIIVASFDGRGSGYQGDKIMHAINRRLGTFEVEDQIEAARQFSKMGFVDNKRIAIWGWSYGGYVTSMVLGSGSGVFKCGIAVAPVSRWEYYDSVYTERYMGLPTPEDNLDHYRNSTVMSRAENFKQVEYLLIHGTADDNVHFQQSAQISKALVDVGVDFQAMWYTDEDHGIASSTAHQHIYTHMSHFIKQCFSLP

[5] = biological target: T3, FAP (Homo sapiens, UniProt Q12884); conditions: Bainbridge et al; cited from earlier work
T3 sequence (Q12884 24-760 limits assumed): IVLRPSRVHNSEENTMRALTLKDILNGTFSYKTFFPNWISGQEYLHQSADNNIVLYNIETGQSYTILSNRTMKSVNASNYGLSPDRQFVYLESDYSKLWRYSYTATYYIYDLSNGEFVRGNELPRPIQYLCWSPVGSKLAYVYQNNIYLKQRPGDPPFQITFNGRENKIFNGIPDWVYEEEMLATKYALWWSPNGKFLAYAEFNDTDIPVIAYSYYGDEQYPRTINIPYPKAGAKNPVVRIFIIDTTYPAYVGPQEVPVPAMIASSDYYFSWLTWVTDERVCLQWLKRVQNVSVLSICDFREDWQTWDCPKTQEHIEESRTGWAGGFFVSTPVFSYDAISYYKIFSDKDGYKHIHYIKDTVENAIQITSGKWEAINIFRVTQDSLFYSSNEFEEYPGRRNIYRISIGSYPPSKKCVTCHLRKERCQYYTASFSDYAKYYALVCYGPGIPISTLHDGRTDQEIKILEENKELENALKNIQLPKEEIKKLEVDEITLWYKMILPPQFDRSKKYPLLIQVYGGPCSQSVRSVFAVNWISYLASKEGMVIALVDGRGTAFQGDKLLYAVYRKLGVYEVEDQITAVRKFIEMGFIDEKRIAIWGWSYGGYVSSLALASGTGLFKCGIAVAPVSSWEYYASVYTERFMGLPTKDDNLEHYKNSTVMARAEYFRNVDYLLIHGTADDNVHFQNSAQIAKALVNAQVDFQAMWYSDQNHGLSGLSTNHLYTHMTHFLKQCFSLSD

Row | Substance | signal (relative fluorescence intensity) with rhFAP ([1]; comparison between probe iterations) | FAP specificity (over PREP) ([1]; from recombinant enzyme assessment) | cleavage by rhPREP [2] | cleavage by rhPREP ([2]; listed as FAP-sp) | MALDI-TOF analysis of probe after activated neutrophil lysate [3] | cleavage by rhDPPIV (exopeptidase activity) [4] | specificity over PREP [5]
1 | Lys(MethylRed)-Val-(D)Ser-Pro-Ser-Gln-Gly-Lys(5-FAM)-[Peg2-(D)Lys]3-NH2 [FAP-sP, reference compound] | improved signal characteristics | FAP specificity | no cleavage | no rhPREP cleavage | all FAP-sP probe was cleaved | no cleavage | –
2 | VsPSQG | – | – | – | – | – | – | specificity over PREP
